The results in this text go back to publication PMC2844450.

Common to all, as to assay: enzyme inhibition kinetics
Assay [1] has as its target fXa-D189S (factor Xa with Asp-189 replaced by Ser).
Assay [2] concerns the target Factor Xa (activated factor X), plasma protein.
Assay [3] addresses Bovine α-chymotrypsin (bovine).
The target of assay [4] is fXa-D189S (factor Xa with Asp-189 replaced by Ser). The source holds these as a separate data set.
Assay [5] addresses Factor Xa (activated factor X), plasma protein. This is another data set of the same source.

Regarding “ZPI in complex with protein Z (PZ) (from UniProt Q9UK55 22-444; P22891 41-400)”, the k2 (second-order rate constant of inhibition), presence of PZ in assay [1] came to 830000; in assay [2], 780000.
Molecule “Human wild-type antithrombin (from UniProt P01008 33-464) (natural protein)” returned a k2 (second-order association rate constant of inhibition), no heparin in assay [3] of 83 M⁻¹ s⁻¹. In assay [1], this molecule registered a KD with heparin (ternary encounter complex, first step) of 194 nM; a k2 with heparin of 1.02e+06 M⁻¹ s⁻¹; a k2 with heparin (k/KD) of 1e+06 M⁻¹ s⁻¹. Further, in assay [2], the k2 (second-order association rate constant of inhibition), no heparin was determined as 3090 M⁻¹ s⁻¹ and the k2 with heparin stood at 4.35e+07 M⁻¹ s⁻¹.

B1: Protein Z-dependent protease inhibitor, wild type (natural protein)
chain: LAPSPQSPETPAPQNQTSRVVQAPKEEEEDEQEASEEKASEEEKAWLMASRQQLAKETSNFGFSLLRKISMRHDGNMVFSPFGMSLAMTGLMLGATGPTETQIKRGLHLQALKPTKPGLLPSLFKGLRETLSRNLELGLTQGSFAFIHKDFDVKETFFNLSKRYFDTECVPMNFRNASQAKRLMNHYINKETRGKIPKLFDEINPETKLILVDYILFKGKWLTPFDPVFTEVDTFHLDKYKTIKVPMMYGAGKFASTFDKNFRCHVLKLPYQGNATMLVVLMEKMGDHLALEDYLTTDLVETWLRNMKTRNMEVFFPKFKLDQKYEMHELLRQMGIRRIFSPFADLSELSATGRNLQVSRVLQRTVIEVDERGTEAVAGILSEITAYSMPPVIKVDRPFHFMIYEETSGMLLFLGRVVNPTLL
With B1, the k2 (second-order rate constant of inhibition), absence of PZ in assay [4] is 2300; in assay [5] it was 1900.
